This is an account of results in publication PMC3857245.

For this assay, the target named is 3xFLAG-tagged rat KCNQ2 (rat) (UniProt O88943). Description: co-IP; KCNQ2-CaM complex immunoprecipitated in calcium (–) condition, the resin then exposed to 500 µM Ca2+; time course of CaM left on KCNQ2.
UniProt O88943, sequence (O88943 whole entry): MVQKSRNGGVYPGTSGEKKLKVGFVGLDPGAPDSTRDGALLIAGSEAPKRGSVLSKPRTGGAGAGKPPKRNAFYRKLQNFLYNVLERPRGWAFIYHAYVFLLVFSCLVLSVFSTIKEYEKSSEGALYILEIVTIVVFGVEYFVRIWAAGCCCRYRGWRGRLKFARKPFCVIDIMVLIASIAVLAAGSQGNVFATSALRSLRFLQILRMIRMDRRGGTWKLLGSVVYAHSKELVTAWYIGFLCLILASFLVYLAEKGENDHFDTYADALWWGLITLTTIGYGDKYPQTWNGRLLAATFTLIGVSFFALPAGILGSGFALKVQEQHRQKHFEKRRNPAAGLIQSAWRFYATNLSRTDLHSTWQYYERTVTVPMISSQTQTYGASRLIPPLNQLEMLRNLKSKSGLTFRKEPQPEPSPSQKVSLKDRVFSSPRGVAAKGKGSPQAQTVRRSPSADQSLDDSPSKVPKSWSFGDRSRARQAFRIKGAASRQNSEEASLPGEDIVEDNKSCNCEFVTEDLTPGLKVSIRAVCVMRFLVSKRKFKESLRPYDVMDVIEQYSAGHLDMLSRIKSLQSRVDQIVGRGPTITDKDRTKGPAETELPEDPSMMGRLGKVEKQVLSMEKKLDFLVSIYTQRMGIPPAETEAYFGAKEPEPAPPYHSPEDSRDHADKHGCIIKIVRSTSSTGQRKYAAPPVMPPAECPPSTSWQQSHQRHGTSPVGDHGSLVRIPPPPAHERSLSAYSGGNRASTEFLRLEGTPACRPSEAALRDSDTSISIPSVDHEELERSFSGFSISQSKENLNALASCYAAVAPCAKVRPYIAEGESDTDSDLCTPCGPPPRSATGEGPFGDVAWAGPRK

Consider “V5-epitope tagged calmodulin (from UniProt P0DP23 1-149) (natural protein)”, for which the time constant of calcium-induced dissociation is 20.7 s.
